In IntAct's records for PubMed 16469698:

Target: mfd_ecoli mfd (UniProt P30958)

effect of a mutation on the interaction: decreasing interaction
Substance: DNA-directed RNA polymerase subunit beta (Escherichia coli (strain K12)) (from UniProt P0A8V2) E119A
